Experimental data taken from publication PMC2581427.
Changes are numbered by the printed parent chain.

B1: Shox2 probe (dsDNA)
DNA 1: GCAAAATCCACGCTTAATTAAATTAATTAGGGA
DNA 2: GTCCCTAATTAATTTAATTAAGCGTGGATTTTG
B2: Ebf3 probe (dsDNA)
DNA 1: GCGATTTTCCCGATTAATTAAAATATTAACGCA
DNA 2: GTGCGTTAATATTTTAATTAATCGGGAAAATCG
B3: Lmo1 probe (dsDNA)
DNA 1: GTAATGAATTGATTTAATTAACAGGGGAGTCTGA
DNA 2: GTCAGACTCCCCTGTTAATTAAATCAATTCATTA
B4: Lmo1mut1 (dsDNA)
DNA 1: B3 DNA 1 with A16C, A17C
DNA 2: B3 DNA 2 with T19G, T20G
B5: Lmo1mut2 (dsDNA)
DNA 1: B3 DNA 1 with T9C, T10C
DNA 2: B3 DNA 2 with A26G, A27G

Columns and labels:
GST-Arx (286-430) [1] = molecular target: T1, GST-Arx (286-430) (UniProt O35085 286-430); assay: EMSA
GST-Arx (286-430) [2] = molecular target: T1, GST-Arx (286-430); assay: EMSA; remark: listed apart in the source
GST-Arx (286-430) [3] = molecular target: T1, GST-Arx (286-430); assay: competition

T1 sequence (O35085 286-430): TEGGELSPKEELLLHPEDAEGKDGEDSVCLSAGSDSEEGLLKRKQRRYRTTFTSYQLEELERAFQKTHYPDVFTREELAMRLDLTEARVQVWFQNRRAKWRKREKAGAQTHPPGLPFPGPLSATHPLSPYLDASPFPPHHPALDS

Binder	binding result (GST-Arx (286-430) [1])	binding result (GST-Arx (286-430) [3])	other results
B1	binds		
B2			binding result (GST-Arx (286-430) [2]): binds
B3	binds		
B4		no binding	
B5		binds	
